The target of the assay is T1, bacterially purified Epac1 (amino acids 149–882) (human, UniProt O95398-3 149-881).
T1 sequence (looked up): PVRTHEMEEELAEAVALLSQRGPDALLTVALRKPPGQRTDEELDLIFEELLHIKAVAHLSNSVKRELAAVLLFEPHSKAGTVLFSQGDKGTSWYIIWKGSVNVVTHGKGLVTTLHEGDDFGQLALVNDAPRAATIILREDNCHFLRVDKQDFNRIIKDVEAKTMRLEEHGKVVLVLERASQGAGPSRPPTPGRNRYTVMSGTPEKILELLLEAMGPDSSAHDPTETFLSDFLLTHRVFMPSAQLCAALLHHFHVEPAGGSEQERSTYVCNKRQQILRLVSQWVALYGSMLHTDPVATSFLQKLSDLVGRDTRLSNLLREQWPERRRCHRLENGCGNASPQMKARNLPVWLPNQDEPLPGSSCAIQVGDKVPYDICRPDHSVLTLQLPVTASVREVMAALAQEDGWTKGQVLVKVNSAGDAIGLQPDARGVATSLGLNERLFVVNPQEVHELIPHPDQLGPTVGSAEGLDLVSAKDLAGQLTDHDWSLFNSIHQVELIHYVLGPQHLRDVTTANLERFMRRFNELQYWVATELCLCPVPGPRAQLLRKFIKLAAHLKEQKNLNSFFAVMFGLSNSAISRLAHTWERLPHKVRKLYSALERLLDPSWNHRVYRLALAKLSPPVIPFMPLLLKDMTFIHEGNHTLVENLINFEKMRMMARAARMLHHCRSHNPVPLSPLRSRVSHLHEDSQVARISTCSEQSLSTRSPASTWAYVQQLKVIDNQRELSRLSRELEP
As to the kind of experiment: pull-down.

B1: GST-tagged bacterially purified ZNF domain of RanBP2 (domain or fragment, UniProt P49792 1341-1819, looked up)
chain: NLNFEFQVAKKEGSWWHCNSCSLKNASTAKKCVSCQNLNPSNKELVGPPLAETVFTPKTSPENVQDRFALVTPKKEGHWDCSICLVRNEPTVSRCIACQNTKSANKSGSSFVHQASFKFGQGDLPKPINSDFRSVFSTKEGQWDCSACLVQNEGSSTKCAACQNPRKQSLPATSIPTPASFKFGTSETSKTLKSGFEDMFAKKEGQWDCSSCLVRNEANATRCVACQNPDKPSPSTSVPAPASFKFGTSETSKAPKSGFEGMFTKKEGQWDCSVCLVRNEASATKCIACQNPGKQNQTTSAVSTPASSETSKAPKSGFEGMFTKKEGQWDCSVCLVRNEASATKCIACQNPGKQNQTTSAVSTPASSETSKAPKSGFEGMFTKKEGQWDCSVCLVRNEASATKCIACQCPSKQNQTTAISTPASSEISKAPKSGFEGMFIRKGQWDCSVCCVQNESSSLKCVACDASKPTHKPIAEAPS
As for B1, the binding result is recorded as “binds”.

The values are drawn from PMC3115801 (The Journal of Cell Biology, 2011).
